The data set can be described thus: protease stability score; higher = more stable; yeast display proteolysis, trypsin and chymotrypsin.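 Also: log10 excess protease needed over predicted unfolded state with 0 meaning unfolded.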
As to “EHELERQASKFAQLLRTNDFEKLLEMFDENARIEVGDKFVQGRDRIKKKLERDKTEMNRRYEDIKFTANGNTLNIKVIFTENHNGKPKRTVQLILITFRNGRIKRVEVRDDG”, the protease stability score was -0.065.

“EHENVRLARSLIDALQQNNPQQAQENADKDVQYEVGEKRIHGREQYSDTMRKNKEQMEFRVHSVDMDEHNGRVTVNLTFIESTNGDPKQDRANLVIEFHNGRIQHVRMSKDG” yielded a protease stability score of -0.268.

In the case of “EHEQSKLMEHLLRIVETGDDDEFRKNADPNVKFVYGDKEYDGREEAAKALREIKTELRFQLNDVEIRVENGVIEINYDFTANHNGRPQRRTQRATAEYDNGKLKSWSVRDDG”, the protease stability score was -0.172.

Sequence “EKEAKTLAHHVMEALEKNDPDQMDEQLDENARVQVGDREVHGREEVNKQIKRLKKHAHFEIESVTLDVQGDKVDAQYTMRADVNGKPWRDHVTVEIHVRNGRIKELRFRMDPQRLRDFKK” registered a protease stability score of 0.72.

The sequence “EKEDLQQIARDMAKAVVSGDKEQMRRLADENARAQIGDKTLHGREKLSELIKRIRDRVDHLRLVDVRQDGDQIQVYVDLVVNGRKRRFTIEAEAHNGHIHSVTFDPRAKEFLDS” registered a protease stability score of 1.79.

The sequence “EKEEVKKAVEAFNENDEDELRDLVDENVKVVIGEKDYTGRETYWQFLRRMHEQIDHMHVKSVSVSNGVLRMDVEVVFNGRNVRFTIEVQAHDGQIKRVHYQARSEEQHKEFLKMLK” registered a protease stability score of 1.58.

Consider “EKEIVNNFKDWVRALTTGDEDRLRNYADPNAQFVVGEKRFHGMDDYVEDMRRRRTEIRVEIRVHHMNSTGEKIEIHAEQTHEHNGKPETHEFKMKAEVHNGRHKSVTQHDDG”, for which the protease stability score is 0.201.

“EKENVQSWLEAWNALRQGDEKRVEQLVDPNARMQVGDKKVEGMTRHVHKEVRKMKEIRVELDLKTVDTQGDHAVVKFRESRNHNGQPREQDVVVRMRAHNGRVQEVNVHEVS” registered a protease stability score of 0.028.

“EKEQKERLEEAQHARESGDTERLKDLFDENVQVEVGDKRVNGMEKFVKDEVKKQRDLRISVTYTEMRNDPNHVDITVEVVEDKNGEPQRRVLEINIEYENGRARMMRVRRVQ” displayed a protease stability score of 1.1.

Sequence “EKEVMDTLVKIVNEGNFEDLAKMADKDVQVRIGNKNLHGKEQLQKFMERFTRQADHIRVHRYQFSNGRFQFDFVIVVNGKRFRVTMHVEVSNGRIKKLVINVTDEDAEKVLREAYG” yielded a protease stability score of 1.38.

“EKEVVELAERFIDALQTNNPDQAEENVDENVKFQYGDKSIKGRDTWNRELKKTLRDQRIQFRHVEIRSDGDKAHITAEFQVTHNGQPDKRRYKMTVEVRNGTIQRVTVQQHR” registered a protease stability score of 0.17.

The sequence “EKHVMTRITQYERNVQNGDEDTLNEMVDKDAKINIGDKTWHGMHNAAKDWKRQKDEMRLDYRSIHVTVQGDTVRIDQVVAVERNGKPSHDRNVQIWHEDNGKVKQVEQHKRP” yielded a protease stability score of -0.216.

Sequence “EKSIVEFFKKWVTAQRDGDPRQHARYIDPNARLQVGDRVVNGREQAKDDQHKKRKEIKVDMRIKSISASNGTLEVNFREKVDVNGRPITREYRFRFEVRNGRITSLSNQVDKEEQKKLKK” gave a protease stability score of 0.157.

“ENHVMNNAEKYLRLLEKGDEEELVKMADPNAKFRIGDKHVHGMESFADDLFRKQKEIRMEINIKHYEVQGDHVTIKAEQEKQHDGRPRRDTNKIIMQVHNGKIKQVTFTSDG” came in with a protease stability score of -0.222.

The sequence “EQDQIRRLKTFIKIIDHNNPSKVRELLDKDVHIDIGDKVIRGREEYADEIHKLQKEMRVKLQVDDIKDHGEHVHFTARWYARVNGRPRTNEIHVQARAHNGHVTSIKVHMDPRVLKEMRS” displayed a protease stability score of -0.027.

“EQELRKKATEMLKVVQEGDEDRLVEYADPNVRVQVGDKVLHGQEDLRKFVQRLTKESRIHLKHVDIEVHGNKIDITVEADVEHNGRPSTDTFSMRVEMENGRAKFIQVRTSK” showed a protease stability score of 1.39.

Turning to “EQEVVHLAHRFIEAVQHNSTEDANKNVDPNAKFRVGDHVVNGREEVNEKVRKDHEKIRLQIRSVTLEDQGDKVEIRMDVEFDVNGKPLHHNLKMTVEAHNGKIVQLDNQMDPTELKELKQ”, the protease stability score is -0.152.

“EQTFVHEFIKNVQRNNEHELKKLIDPNAKVVVGNKTFQGREQINSQLKRFKDQVDEFHVDTYHDKGDKAVIDYVRVVDGQRVHYRLIITAENGKVKSMELHVTDPEQQKTIERVLD” displayed a protease stability score of 1.33.

“ERDSLKHVAREMEKNNFDEMLHNADKDVEIHYGNRSVHGHKRAQSFWERLKSRVDHISFKSYSINNGRIVMSFKVVIDGQDIEVHISIEVENGTIKHVQFQATSEEIEKLLEKLMD” came in with a protease stability score of 1.36.

Take “ERELVSIAQDILHALEHGDPQQFRDLVDPNAKFKVGDHEWHGRESAANEYAKEQRKMNNKYDRVTWDNNGDHIRARFNWVNHSNGEPKRKQATQELVLHNGRLVSMKQDDTQ”: the protease stability score was -0.052.

The sequence “ERERNQKLAEIFAQAVETGDPEQAQKMAPPDVKAQVGDHQFRGREEIHKMIETIRRRADHARLKDMTVDGDKITIVVQFNVNGKEVNVVFHITVRNGVATEIELRSK” returned a protease stability score of 1.26.

“EREVVQEAAKAINSNDFRRLSELMDKDVKMQYGDKTLSGREEVETLLKSLHEQIDTFTVDHYHVEGNKAEVDARFHFNGKRLRMHLYAVAHNGRIQEMKIQATTEHQQEELSRLWR” registered a protease stability score of 0.613.

In turn, “ESELDKQAEQIVRVLRTGDPEKVADNAPEDAELIIGDKTYHGREQIRDWVHTVNKQMRIQWDEFDVKVKGDKAKVEADVVYDVNGTPVEDKIVLIFVIHNGRVHAVHFDFDPEVWRSMES” came in with a protease stability score of 0.569.

As for “ETEELHKMTELIDNMQRGNPQKFNEMVDPNAQFEVGDKTIRGREELSKELHRKRREMRRSLRSVKVRLSGNHFDIRVTFRETHNGQPDDRRQRIVIIVSNGRIKSVRVDEDG”, the protease stability score was determined as 0.

The sequence “ETHVINRAIEAARHGDEDTLSKLADENAHVSVGDKEFHGREQVKNALKDWHDQVDTFEMKKVEVRGNKADVKIKVVVNGRDMTMRMEINAKGESIREINFSYRDERAKHHAQNAQG” showed a protease stability score of 0.169.

“KEEDIVKVAKKLAKIVEEGNPDELKKLLSPDLEVKYGDKERHGADELVKVLKKLLRKGVRIQVKELQVEGNTATTVLEYQHGDKKHDVEIKAKLTGGRLKKLEVRFSPKAQEIVTQG” had a protease stability score of 2.02.

In turn, “KEEDVEKVAKRLITLVQEGNVDVMRKYLAPDVEVQYGDVEVKGPDQVVKHVRDLRRQGYRVQLKEVQVEGNTAETVLDYQAGDQKYTATVKAQVKGGVLKRATVKASPEMKKVVKAG” had a protease stability score of 1.38.

“KEETVETLWKQMVEAVQKNNEEQLKKLGKDDVKVEYGGKKYEGTEQMATQLKKFMDLGAKFELKRYKVEGNHVEADIQVHVGGKTVHVTVRVEYDGGKLKKVQVHVSEEAEEAYKKG”: the protease stability score was found to be 1.24.

For the sequence “KEETVKTLWERMVEAVQKGDKEKVKKLGKDNVNARYNGKEYQGREELAKMLDKFKRKGAEFELKQVHVEGNTVKAEIEVHAAGTTQHVEVEAKYDGGQVEEVVVKISEEVQEMYKKG”, the protease stability score is 0.551.

For “NEEQAKRLAEKWIRAVENGNVDELRKLGKPDMEVVAVNEKAKGVDTVHKYMKKFTDRGVELKVDRAKNTGGRVRYTVRARYGGQELTAEVVIDIKDGKVDKVEFRVDERQAQYVLRG”, the protease stability score amounted to 0.812.

The sequence “NEEQLERVVKKWMEAVENADSKKVKELLKPDAEVQFGNRTVKGVDELVKYVKKFMDMGVELEVKEHKVEGGRARYQVVATYGGQTVTAQLTIQAKNGKIEKIEFRDNEEVQTLEKQG” returned a protease stability score of 0.988.

In turn, “REEDVEKVIRTLLQAVHEGNPDKIRKYLKPDVEVQYADQKFKGPDEIMKLMRRMVRKGYRVQIKEQHVEGDTATTRADYQMGDKQVTVEVTAEAENGKLKHAEIKMSPQFEEIVKKG” gave a protease stability score of 1.49.

The sequence “SEEELRKVVEKLLTYVIEGNPDDVKKYISPNVQVRYFDKTVQGRDEVMKFLRRAKKHGYRLQAKHVQLEGDRATTELDYQAGDQEATVRVEATVNGGRLEKLEVRDSPKVKKVLKDG” gave a protease stability score of 1.56.

For “SEEQVEKLVKVMFRAVQNGNKDEVKKYGKSSGQFVFGSDRVEGVDQYVKKLKEVHDRGVQFEFKKFQVKDDTVTMETEVHYGNKTFRVTAQAKYDGGTLDRARVEISEEAKEAYKQG”, the protease stability score is 0.368.

The sequence “SEERAKKVAKKLMEAFVKGNKDDAKDALQEDVQLHIAGTTYHGPKAVEKLIEFWQRVGVEVKVQEVRVKGNHVEIQTQVHLGDNTTTVRYKIQVEGDKVKKLQLNFSEEVFKQAKDG” displayed a protease stability score of 1.76.

“TEEDVLKVLETLMKAFFDGNPKEVKEMGKEDVKFQVGDQEVRGVDQMTKRVKEYRDQGIEFHLKRYKVEGDQVTAEAEVVMGDKKARVTAHYKADDGRVDETRVEMSDEAKKLFKHG”: the protease stability score turned out to be 0.432.
